Assay results reported in paper PMC3496974 (MicrobiologyOpen, 2012).

Legend:
SEC = biological target: the molecule itself; assay: SEC
PanZ(N45A)-His = biological target: T1, PanZ(N45A)-His (E. coli, UniProt P37613 1-127, N45A); assay: SEC
T1 sequence: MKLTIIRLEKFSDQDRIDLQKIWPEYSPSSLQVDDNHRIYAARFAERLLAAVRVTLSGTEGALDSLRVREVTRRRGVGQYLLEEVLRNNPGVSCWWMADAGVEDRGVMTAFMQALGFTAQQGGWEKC

B1: PanD, unactivated proenzyme (native, untagged) (enzyme, E. coli, UniProt P0A790 1-126, looked up)
chain: MIRTMLQGKLHRVKVTHADLHYEGSCAIDQDFLDAAGILENEAIDIWNVTNGKRFSTYAIAAERGSRIISVNGAAAHCASVGDIVIIASFVTMPDEEARTWRPNVAYFEGDNEMKRTAKAIPVQVA
B1 was tested, and the “stoichiometry N” value (SEC) was 4 and the binding result (PanZ(N45A)-His) was “binds”.
